Test results from paper PMC7199903.

Molecular target: recombinant soluble SARS-CoV-2 spike (S) glycoprotein, prefusion-stabilised trimer (2P, GSAS, C-terminal trimerization motif) (SARS-CoV-2)
Assay: negative-stain EM

“recombinant soluble SARS-CoV-2 spike (S) glycoprotein, prefusion-stabilised trimer (2P, GSAS, C-terminal trimerization motif) (domain or fragment)” gave a stoichiometry N of 3.
